Results: paper PMC12489474, “New structural insights into the control of the retinoic acid receptors RAR/RXR by DNA, ligands, and transcriptional coregulators” (Nucleic Acids Research, 2025)
One block for each binder: values may come before it.

What was measured:
[1] = target: RARalpha dAB dF;RXRalpha dAB (Mus musculus / Homo sapiens (Methods …, UniProt P11416;P19793 82-421;126-462, |)); assay: SEC-SAXS; apo; Fluorescence anisotropy: 20 mM Tris-HCl pH 7.5, 75 mM NaCl, 75 mM KCl, 2 mM CHAPS, 4 mM MgCl2, 2 mM TCEP, 10% glycerol, 0.5 nM Cy5-DNA, 4 uM ligands, 294 K; details: protein: recombinant;recombinant; tags: N-terminal His6 (pET15b); copies: 1;1; blunt
[2] = target: RARalpha dAB dF;RXRalpha dAB;NCoR NID (Mus musculus / Homo sapiens (Methods …, UniProt P11416;P19793;Q60974 82-421;126-462;2059-2325, ||)); assay: SEC-SAXS; BMS493; Fluorescence anisotropy: 20 mM Tris-HCl pH 7.5, 75 mM NaCl, 75 mM KCl, 2 mM CHAPS, 4 mM MgCl2, 2 mM TCEP, 10% glycerol, 0.5 nM Cy5-DNA, 4 uM ligands, 294 K; details: protein: recombinant;recombinant;recombinant; tags: N-terminal His6 (pET15b); copies: 1;1;1; blunt
[3] = target: T1, RAR/RXR heterodimer (RARAΔABF with RXRAΔAB) (mouse (printed as MmRARAΔABF; the same …, UniProt P11416 82-421; P19793 126-462); assay: MST; RR–DR0 with BMS493; heterodimer titrated against labelled NCoRNID; same buffer, 22°C; details: both partners purified
T1 construct: retinoic acid receptor alpha, residues 82-421 of Uniprot entry P11416; as the chain of m1; as the chain of m2; 1:1 heterodimer by SEC-MALS; this is told in the format of each assay; also called RR–DR0; source: E. coli BL21 (DE3); RAR and RXR purified separately, mixed (2-fold excess of RAR), heterodimer purified by SEC (Superdex 200); not shown: His6, N-terminal, cleaved
T1 sequence (looked up) 1: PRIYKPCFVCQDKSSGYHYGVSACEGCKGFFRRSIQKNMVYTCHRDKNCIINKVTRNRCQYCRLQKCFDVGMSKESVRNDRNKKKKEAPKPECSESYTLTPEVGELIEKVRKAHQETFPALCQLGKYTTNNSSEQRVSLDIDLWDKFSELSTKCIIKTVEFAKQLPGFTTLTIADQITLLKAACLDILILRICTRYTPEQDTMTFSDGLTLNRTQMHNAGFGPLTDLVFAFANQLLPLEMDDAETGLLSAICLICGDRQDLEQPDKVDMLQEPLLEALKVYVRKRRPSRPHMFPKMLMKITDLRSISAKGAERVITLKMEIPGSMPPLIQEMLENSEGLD
T1 sequence (looked up) 2: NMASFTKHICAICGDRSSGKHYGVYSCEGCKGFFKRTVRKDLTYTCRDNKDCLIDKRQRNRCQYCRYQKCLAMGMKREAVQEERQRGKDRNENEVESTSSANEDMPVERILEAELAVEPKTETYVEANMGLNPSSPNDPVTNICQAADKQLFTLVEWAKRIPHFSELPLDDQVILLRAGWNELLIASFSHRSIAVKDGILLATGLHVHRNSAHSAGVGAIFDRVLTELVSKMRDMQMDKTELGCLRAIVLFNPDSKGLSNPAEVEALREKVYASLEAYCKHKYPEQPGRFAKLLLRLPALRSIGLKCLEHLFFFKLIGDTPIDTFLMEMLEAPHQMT

[4] = target: T1, RAR/RXR heterodimer (RARAΔABF with …); assay: MST; RR–DR1 with BMS493; heterodimer titrated against labelled NCoRNID; same buffer, 22°C; details: both partners purified
[5] = target: T1, RAR/RXR heterodimer (RARAΔABF with …); assay: MST; RR–DR5 with BMS493; heterodimer titrated against labelled NCoRNID; same buffer, 22°C; details: both partners purified
[6] = target: T1, RAR/RXR heterodimer (RARAΔABF with …); assay: MST; RR–IR0 with BMS493; heterodimer titrated against labelled NCoRNID; same buffer, 22°C; details: both partners purified
[7] = target: T1, RAR/RXR heterodimer (RARAΔABF with …); assay: MST; RAR/RXR without DNA, with BMS493; heterodimer titrated against labelled NCoRNID; same buffer, 22°C; details: both partners purified
[8] = target: T1, RAR/RXR heterodimer (RARAΔABF with …); assay: MST; RR–DR1 with the agonists AM580 + CD3254; heterodimer titrated against labelled NCoRNID; same buffer, 22°C; details: both partners purified
[9] = target: T1, RAR/RXR heterodimer (RARAΔABF with …); assay: MST; RAR/RXR bound to DR0 DNA (RR–DR0), no ligand (apo); heterodimer titrated against labelled NCoRNID; same buffer, 22°C; details: both partners purified
[10] = target: T1, RAR/RXR heterodimer (RARAΔABF with …); assay: MST; RAR/RXR bound to DR1 DNA (RR–DR1), no ligand (apo); heterodimer titrated against labelled NCoRNID; same buffer, 22°C; details: both partners purified
[11] = target: T1, RAR/RXR heterodimer (RARAΔABF with …); assay: MST; RAR/RXR bound to DR5 DNA (RR–DR5), no ligand (apo); heterodimer titrated against labelled NCoRNID; same buffer, 22°C; details: both partners purified
[12] = target: T1, RAR/RXR heterodimer (RARAΔABF with …); assay: MST; RAR/RXR bound to IR0 DNA (RR–IR0), no ligand (apo); heterodimer titrated against labelled NCoRNID; same buffer, 22°C; details: both partners purified
[13] = target: T1, RAR/RXR heterodimer (RARAΔABF with …); assay: MST; RAR/RXR without DNA, no ligand (apo); heterodimer in 2-fold serial dilution from 20 μM, added to an equal volume of 80 nM Atto647N-NCoRNID; 20 mM Tris–HCl pH 7.5, 75 mM NaCl, 75 mM KCl, 2 mM CHAPS, 4 mM MgCl2, 5% glycerol, 0.05% Tween-20; 22°C; details: both partners purified

B1: DR0L Hoxb13 (dsDNA)
DNA 1: CTTCCAGGAAGGTCAAGGCCAAGTTGAAAG
DNA 2: CTTTCAACTTGGCCTTGACCTTCCTGGAAG
binding result [1]: binds
binding result [2]: binds

Kd [3]: 244 nM
Kd [4]: 499 nM
Kd [5]: 335 nM
Kd [6]: 289 nM
Kd [7]: 368 nM
Kd [8]: 5300 nM
Kd [9]: 414 nM
Kd [10]: 531 nM
Kd [11]: 283 nM
Kd [12]: 289 nM
Kd [13]: 490 nM
B2: Atto647N-labeled NCoRNID (domain or fragment, UniProt Q60974 2059-2325, looked up)
chain: QVPRTHRLITLADHICQIITQDFARNQVPSQASTSTFQTSPSALSSTPVRTKTSSRYSPESQSQTVLHPRPGPRVSPENLVDKSRGSRPGKSPERSHIPSEPYEPISPPQGPAVHEKQDSMLLLSQRGVDPAEQRSDSRSPGSISYLPSFFTKLESTSPMVKSKKQEIFRKLNSSGGGDSDMAAAQPGTEIFNLPAVTTSGAVSSRSHSFADPASNLGLEDIIRKALMGSFDDKVEDHGVVMSHPVGIMPGSASTSVVTSSEARRDE
modifications: Atto647N label (site not stated)
